The source of these data is patent US7279304B2, “Methods for preparation of macrocyclic molecules and macrocyclic molecules prepared thereby” (President and Fellows of Harvard College, priority 2000, dated 2007).

What all share (assay): purified protein, by the assay type
Common to all, as to type: biochemical

Substrate in data set [1]: CC(=O)NCCSC(=O)[C@H](CC(C)C)NC(=O)[C@H](CCCN)NC(=O)[C@@H]1CCCN1C(=O)[C@@H](Cc1ccccc1)NC(=O)[C@H](CC(C)C)NC(=O)[C@H](CCCN)NC(=O)[C@@H]1CCCN1C(=O)[C@H](N)Cc1ccccc1
Conditions: other: Table 2; cyclization of peptide-SNAC substrates of 6-14 amino acids. As for the experimental part: (§1) Macrocyclization reactions were carried out in 25 mM MOPS, pH 7.0 in a total volume of 400 μL. Reactions were initiated by addition of TycC TE and quenched at various time points by the addition of 25 μL 1.7% TFA/water, flash frozen in liquid nitrogen and stored at −80° C. (for Ex. 13, reactions were quenched by the addition of sodium phosphate, pH 5.3, to 100 mM). The reactions were then thawed, 85 μL acetonitrile added, and analyzed by analytical HPLC with monitoring at 220 nm (20% to 80% acetonitrile in 0.1% TFA/water, or in 25 mM potassium phosphate, pH 5.3 for Ex. 13, over 35 minutes, Vydac protein and peptide C18 column). Initial rates were calculated using 1 minute time points. Peptide-SNAC and reaction product concentrations were determined for all Tyr-containing peptides based on the estimated extinction coefficient ε (280 nm)=1,280 M^−1 cm^−1, which agrees with the experimentally determined ε (280 nm) of Ex. 1. For peptide-SNACs not containing Tyr, ε (220 nm) was determined experimentally, and concentrations of corresponding cyclic products determined by assuming equal ε (220 nm) values for the peptide-SNAC and cyclic product.

Substrate in data set [2]: CC(=O)NCCSC(=O)[C@H](CC(C)C)NC(=O)[C@H](CCC(=O)O)NC(=O)[C@@H](NC(=O)[C@H](Cc1ccc(O)cc1)NC(=O)[C@H](CCC(N)=O)NC(=O)[C@H](CC(N)=O)NC(=O)[C@@H](Cc1ccccc1)NC(=O)[C@H](Cc1ccccc1)NC(=O)[C@@H]1CCCN1C(=O)[C@H](N)Cc1ccccc1)C(C)C
The conditions noted are these: other: Table 1; macrocyclization of peptide-SNAC substrate; 25 mM MOPS, pH 7.0. The procedure:
as §1

Substrate in data set [3]: CC(=O)NCCSC(=O)[C@H](CC(C)C)NC(=O)[C@H](CCCN)NC(=O)[C@@H](NC(=O)[C@H](CC(C)C)NC(=O)[C@@H](NC(=O)[C@@H]1CCCN1C(=O)[C@@H](Cc1ccccc1)NC(=O)[C@H](CC(C)C)NC(=O)[C@H](CCCN)NC(=O)[C@@H](NC(=O)[C@H](CC(C)C)NC(=O)[C@@H](NC(=O)[C@@H]1CCCN1C(=O)[C@H](N)Cc1ccccc1)C(C)C)C(C)C)C(C)C)C(C)C
Conditions: other: Table 2; cyclization of peptide-SNAC substrates of 6-14 amino acids. As for the experimental part:
as §1

Substrate in data set [4]: CC(=O)NCCSC(=O)[C@H](CC(C)C)NC(=O)[C@H](CCCN)NC(=O)[C@@H](NC(=O)[C@H](Cc1ccc(O)cc1)NC(=O)[C@H](CCC(N)=O)NC(=O)[C@H](CC(N)=O)NC(=O)[C@H](Cc1ccccc1)NC(=O)[C@@H]1CCCN1C(=O)[C@H](N)Cc1ccccc1)C(C)C
The conditions noted are these: other: Table 1; macrocyclization of peptide-SNAC substrate; 25 mM MOPS, pH 7.0. The procedure: as §1

Substrate in data set [5]: CC(=O)NCCSC(=O)[C@H](CC(C)C)NC(=O)[C@H](CCCN)NC(=O)[C@@H](NC(=O)[C@H](Cc1ccc(O)cc1)NC(=O)[C@H](CCC(N)=O)NC(=O)[C@H](CC(N)=O)NC(=O)[C@@H](C)NC(=O)[C@H](Cc1ccccc1)NC(=O)[C@@H]1CCCN1C(=O)[C@H](N)Cc1ccccc1)C(C)C
The conditions noted are these: other: Table 1; macrocyclization of peptide-SNAC substrate; 25 mM MOPS, pH 7.0. The procedure: as §1

Substrate in data set [6]: CC(=O)NCCSC(=O)[C@H](CC(C)C)NC(=O)[C@H](CCCN)NC(=O)[C@@H](NC(=O)[C@H](Cc1ccc(O)cc1)NC(=O)[C@H](CCC(N)=O)NC(=O)[C@H](CC(N)=O)NC(=O)[C@@H](Cc1ccccc1)NC(=O)[C@H](C)NC(=O)[C@@H]1CCCN1C(=O)[C@H](N)Cc1ccccc1)C(C)C
The conditions noted are these: other: Table 1; macrocyclization of peptide-SNAC substrate; 25 mM MOPS, pH 7.0. The procedure:
as §1

Substrate in data set [7]: CC(=O)NCCSC(=O)[C@H](CC(C)C)NC(=O)[C@H](CCCN)NC(=O)[C@@H](NC(=O)[C@H](CC(C)C)NC(=O)[C@@H]1CCCN1C(=O)[C@@H](Cc1ccccc1)NC(=O)[C@H](CC(C)C)NC(=O)[C@H](CCCN)NC(=O)[C@@H](NC(=O)[C@H](CC(C)C)NC(=O)[C@@H]1CCCN1C(=O)[C@H](N)Cc1ccccc1)C(C)C)C(C)C
The conditions noted are these: other: Table 2; cyclization of peptide-SNAC substrates of 6-14 amino acids. As for the experimental part: as §1

Substrate in data set [8]: CC(=O)NCCSC(=O)[C@H](C)NC(=O)[C@H](CCCN)NC(=O)[C@@H](NC(=O)[C@H](Cc1ccc(O)cc1)NC(=O)[C@H](CCC(N)=O)NC(=O)[C@H](CC(N)=O)NC(=O)[C@@H](Cc1ccccc1)NC(=O)[C@H](Cc1ccccc1)NC(=O)[C@@H]1CCCN1C(=O)[C@H](N)Cc1ccccc1)C(C)C
The conditions noted are these: other: Table 1; macrocyclization of peptide-SNAC substrate; 25 mM MOPS, pH 7.0. The procedure:
as §1

Substrate in data set [9]: CC(=O)NCCSC(=O)[C@H](CC(C)C)NC(=O)[C@H](CCCN)NC(=O)[C@@H](NC(=O)[C@H](Cc1ccc(O)cc1)NC(=O)[C@H](C)NC(=O)[C@H](CC(N)=O)NC(=O)[C@@H](Cc1ccccc1)NC(=O)[C@H](Cc1ccccc1)NC(=O)[C@@H]1CCCN1C(=O)[C@H](N)Cc1ccccc1)C(C)C
The conditions noted are these: other: Table 1; macrocyclization of peptide-SNAC substrate; 25 mM MOPS, pH 7.0. The procedure: as §1

Substrate in data set [10]: CC(=O)NCCSC(=O)[C@H](CC(C)C)NC(=O)[C@H](CCCN)NC(=O)[C@@H](NC(=O)[C@H](Cc1ccc(O)cc1)NC(=O)[C@H](CCC(N)=O)NC(=O)[C@H](C)NC(=O)[C@H](CC(N)=O)NC(=O)[C@@H](Cc1ccccc1)NC(=O)[C@H](Cc1ccccc1)NC(=O)[C@@H]1CCCN1C(=O)[C@H](N)Cc1ccccc1)C(C)C
The conditions noted are these: other: Table 1; macrocyclization of peptide-SNAC substrate; 25 mM MOPS, pH 7.0. As for the experimental part: as §1

B1: TycC TE (excised TE domain protein from the tyrocidine NRPS) (Brevibacillus parabrevis) (protein)
chain: FESRYGTAILLNQETARNVFCFTPIGAQSVYYQKLAAEIQGVSLYSFDFIQDDNRMEQYIAAITAIDPSGPYTLMGYSSGGNLAFEVAKELEERGYGVTDIILFDSYWKDKAIERTVAETENDIAQLFAEIGENTEMFNMTQEDFQLYAANEFVKQSFVRKTVSYVMFHNNLVNTGMTTAAIHLIQSELEADEEAPVAAKWNESAWANATQRLLTYSGHGIHSRMLAGDYASQNASILQNILQELFILK
notes: excised TE domain protein from the tyrocidine NRPS (TycC TE); made in house
Consider B1, for which the Km in [1] was 3 µM; in [2] it was 56 µM; in data set [3], 5 µM; in [4], 6 µM; in [5], 6 µM; in data set [6] it was 6 µM. In addition, the Km stood at 6 µM in data set [7], 6 µM in data set [8], 4 µM in data set [9] and 20 µM in data set [10]. Also, the turnover number (kcat) was 0.283 s⁻¹ in data set [1], 0.1 s⁻¹ in data set [3] and 0.367 s⁻¹ in [7].

The Km is the substrate concentration at which the rate is half of its maximum. In general, kcat refers to the maximal rate divided by the concentration of active sites.
